Reference: paper PMC7324543, “Rapid and sensitive large-scale screening of low affinity extracellular receptor protein interactions by using reaction induced inhibition of Gaussia luciferase” (Scientific Reports, 2020)

Legend:
[1] = biological target: Cd200R (Rattus norvegicus) (UniProt Q9ES58); settings: cited from earlier work
[2] = biological target: T1, biotinylated rat Cd200R monomeric bait (rat, UniProt Q9ES58 24-239, biotin on a specific lysine of the C-terminal BirA acceptor peptide (enzymatic monobiotinylation)); assay: ELISA; printed as log IC50 = -9.6; direct binding of pentameric prey to immobilised bait
T1 chain: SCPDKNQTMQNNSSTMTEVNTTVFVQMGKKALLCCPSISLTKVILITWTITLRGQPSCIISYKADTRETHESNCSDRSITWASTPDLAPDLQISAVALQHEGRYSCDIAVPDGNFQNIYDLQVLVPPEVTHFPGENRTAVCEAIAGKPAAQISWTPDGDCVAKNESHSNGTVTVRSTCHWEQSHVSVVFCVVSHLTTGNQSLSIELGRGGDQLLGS

[3] = biological target: T2, biotinylated Cd200R Gaussia luciferase pentamer (bait) (rat, UniProt Q9ES58 24-239, biotin on a specific lysine of the C-terminal BirA acceptor peptide (enzymatic biotinylation)); assay: ELISA; AVEXIS: dilution series of biotinylated Gaussia luciferase pentamer immobilised as bait on a streptavidin-coated plate, probed with beta-lactamase-tagged pentameric prey; nitrocefin read-out; settings: both partners purified
T2 construct: Cd200R (CD200 receptor 1), rat, ectodomain; also called Cd200R Gaussia luciferase-tagged pentamer; source: HEK293E, transient transfection with BirA plasmid, secreted; purified; not shown: rat Cd4 domains 3+4, C-terminal, kept; five concatenated Gaussia luciferase units (AAG54095 residues K18-D185), C-terminal, kept; BirA biotin acceptor peptide, C-terminal, kept
T2 sequence (looked up): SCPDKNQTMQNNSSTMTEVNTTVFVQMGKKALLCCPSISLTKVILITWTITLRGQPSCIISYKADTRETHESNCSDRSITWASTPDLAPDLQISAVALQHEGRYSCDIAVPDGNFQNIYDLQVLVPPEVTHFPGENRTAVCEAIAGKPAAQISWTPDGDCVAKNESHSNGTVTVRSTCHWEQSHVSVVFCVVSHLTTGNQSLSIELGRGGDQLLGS

[4] = biological target: T3, biotinylated rat Cd200R monomeric bait (rat, UniProt Q9ES58 24-239, biotin on a specific lysine of the C-terminal BirA acceptor peptide (enzymatic monobiotinylation)); assay: ELISA; AVEXIS: dilution series of pentameric beta-lactamase prey on a fixed quantity of monomeric mono-biotinylated bait on a streptavidin-coated 96-well plate; 1 h at room temperature, washes in PBS / 0.1% Tween-20; nitrocefin, absorbance at 485 nm; settings: both partners purified
T3 construct: Cd200R (CD200 receptor 1), rat, ectodomain; Captured on streptavidin-coated plates by its biotin; also called Cd200R bait; source: HEK293E, transient transfection with BirA plasmid, secreted; purified; not shown: rat Cd4 domains 3+4, C-terminal, kept; BirA biotin acceptor peptide, C-terminal, kept
T3 sequence (looked up): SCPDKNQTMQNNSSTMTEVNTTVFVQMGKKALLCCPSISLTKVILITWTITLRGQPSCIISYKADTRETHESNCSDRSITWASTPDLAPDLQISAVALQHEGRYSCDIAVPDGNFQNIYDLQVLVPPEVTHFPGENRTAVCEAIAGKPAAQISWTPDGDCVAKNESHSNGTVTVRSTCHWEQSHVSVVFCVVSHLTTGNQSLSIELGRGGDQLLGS

[5] = biological target: T3, biotinylated rat Cd200R monomeric bait; assay: ELISA; AVEXIS: dilution series of pentameric nano-luciferase prey on a fixed quantity of monomeric mono-biotinylated bait on a streptavidin-coated 96-well plate; 1 h at room temperature; furimazine, luminescence; settings: both partners purified
[6] = biological target: T1, biotinylated rat Cd200R monomeric bait; assay: ELISA; printed as log IC50 = -9.9; direct binding of pentameric prey to immobilised bait
[7] = biological target: T3, biotinylated rat Cd200R monomeric bait; assay: ELISA; AVEXIS: dilution series of pentameric Gaussia luciferase prey on a fixed quantity of monomeric mono-biotinylated bait on a streptavidin-coated 96-well plate; 1 h at room temperature; coelenterazine, luminescence; settings: both partners purified
[8] = biological target: T2, biotinylated Cd200R Gaussia luciferase …; assay: ELISA; AVEXIS, single construct: dilution series of biotinylated Gaussia luciferase pentamer bait on a streptavidin-coated plate, inactivated with coelenterazine, probed with non-biotinylated Gaussia luciferase pentamer prey; coelenterazine, luminescence; settings: both partners purified

For Cd200 (from UniProt P04218), the Kd [1] is given as 2500 nM.

B1: rat Cd200 beta-lactamase pentameric prey (domain or fragment, UniProt P04218 31-232, looked up)
chain: QVEVVTQDERKLLHTTASLRCSLKTTQEPLIVTWQKKKAVGPENMVTYSKAHGVVIQPTYKDRINITELGLLNTSITFWNTTLDDEGCYMCLFNMFGSGKVSGTACLTLYVQPIVHLHYNYFEDHLNITCSATARPAPAISWKGTGSGIENSTESHSHSNGTTSVTSILRVKDPKTQVGKEVICQVLYLGNVIDYKQSLDKG
notes: Cd200 (OX-2 membrane glycoprotein), rat, extracellular region (ectodomain); Original AVEXIS prey format; Pentamer through COMP; also called Cd200 beta-lactamase tagged prey; beta-lactamase-tagged Cd200 pentamer; source: HEK293E, transient transfection, secreted; not shown: rat Cd4 domains 3+4, C-terminal, kept; beta-lactamase (WP_125075679 residues H19-W282), C-terminal, kept
In the case of B1, the IC50 [2] is reported as 0.25 nM, the binding result [3] is reported as “binds” and the binding result [4] is reported as “binds”.

B2: rat Cd200 nano-luciferase pentameric prey (domain or fragment, UniProt P04218 31-232, looked up)
chain: QVEVVTQDERKLLHTTASLRCSLKTTQEPLIVTWQKKKAVGPENMVTYSKAHGVVIQPTYKDRINITELGLLNTSITFWNTTLDDEGCYMCLFNMFGSGKVSGTACLTLYVQPIVHLHYNYFEDHLNITCSATARPAPAISWKGTGSGIENSTESHSHSNGTTSVTSILRVKDPKTQVGKEVICQVLYLGNVIDYKQSLDKG
notes: Cd200 (OX-2 membrane glycoprotein), rat, extracellular region (ectodomain); also called NanoLuc prey; Nano luciferase prey; source: HEK293E, transient transfection, secreted; not shown: rat Cd4 domains 3+4, C-terminal, kept; five concatenated nano-luciferase units (AHH41346 residues V2-T171), C-terminal, kept
For B2, the binding result [5] was “binds” and the IC50 [6] was 0.126 nM.

B3: rat Cd200 Gaussia luciferase pentameric prey (domain or fragment, UniProt P04218 31-232, looked up)
chain: QVEVVTQDERKLLHTTASLRCSLKTTQEPLIVTWQKKKAVGPENMVTYSKAHGVVIQPTYKDRINITELGLLNTSITFWNTTLDDEGCYMCLFNMFGSGKVSGTACLTLYVQPIVHLHYNYFEDHLNITCSATARPAPAISWKGTGSGIENSTESHSHSNGTTSVTSILRVKDPKTQVGKEVICQVLYLGNVIDYKQSLDKG
notes: Cd200 (OX-2 membrane glycoprotein), rat, extracellular region (ectodomain); also called Cd200 Gaussia luciferase fusion pentamer; GLuc prey; source: HEK293E, transient transfection, secreted; not shown: rat Cd4 domains 3+4, C-terminal, kept; five concatenated Gaussia luciferase units (AAG54095 residues K18-D185), C-terminal, kept
With B3 the binding result [7] was “binds”, the IC50 [6] was 0.126 nM and the binding result [8] was “binds”.
